# The DeepSol protein solubility set
# Assay: soluble on expression in E. coli; label from the status in PepcDB or PDB records
row,Sequence,soluble on expression in E. coli
1,MRSQSTHSQSMRSDIYLLLATLLRDVPSAELCAFLAELDFEANGTEMAKAWQAMSAAAQNAQADSLADEYQELFIGIGRGEVVPFASWHLTGSLMEKPLADIRDDLSRLGLERDEQVREPEDHISALCETMAYLCEESGDENAAEETQQAFFNRHIAPWFGKLVSQIRQAPHAQFYLAVAQLLDAFLSLEQVAMTQAPSSRKNRYRIEVKNLTDKAEQ,not soluble
2,MSRTAKPQNGRRRFLRDVVRTAGGLAAVGVALGLQQQTARASGVRLRPPGALNENVFASACVRCGQCVQACPYDTLKLATLASGLSAGTPYFVARDIPCEMCEDIPCAKVCPSGALNKDIASIDDSRMGLAVLLDQENCLNFQGLRCDVCYRECPKIDEAITLELDRNMRTGKHARFLPTVHSDACTGCGKCEKVCVLEQPAIKVLPLSLAKGELGHHYRFGWLEGKDGKS,not soluble
3,MGHNDELIRNKSAFASEMSDAAAIVQYADKNSLVVLDELARSTSTEEGIAITYAICEKVLKLHSYTFLATHFLDIAALANYSNAIDNYHFLPQIDDNSTKKHKLLRG,not soluble
4,MAHHHHHHMSEARQIQSMIDFIEREAQEKAEELEAAAQEEYDVEKMRLVEAEKAKIRAMAEKKLKQVDVDRRVARANYSKVQRMRVMEERARTMEKLHEQTRQKIVAMVNNPPQYKPMLVRLIHQSLMSIRTDAVVQCRKEDEAEVVRSIPELERWYKEKTGATISIQTSKTYLDTAEAWGGVVVKSTDGRVVCNNTLSYRTKTCFDEQLPTVRFHLFNPDAPL,soluble
5,MSLPRKIAYEIPKNWARSNHWLMKTIVGTTFEIEGLENIPETGCIFAPKHQSFWDTYALLPNLPDPVYILKRELLWIPLFGWYAMKQRMIPVNRAARGKVMLKVMERAKEEMAAGRELIIYPEGTRRPPGAEPEYRYGIARLYRDLQVPVIPVAMHPGLFWPRRSTMRYPGHFKVRILPAIEPGLDPDVFFKRLIEVTEKASDELLLETARNNPHLPLPPTAVKRIAELQGKETTADEGHHHHHH,not soluble
6,MLSFEQSYAPSRNMKLLLVEPSGSYFNDSCCSEPNSPDSGFSSDDSISSDASFAERLTRSKTLPSALRRSRSKQSVKRVRFADSLGLDLENLQYFVKEDLHLQKFNIHFSTPSSSTPPPQLPHFPKQLINQPAPRLVLHNFPYRSEQEYQVKTRDSRVCVAALRASGSSIVGQVNLLNVAFDKVVVVRYTIDGWATQDEIVASYSHRLFDTEDIDAFNFTIAIPVKLSEGKCEFCVQYQVAGAEFWDNNGGDNYIVNVSTKGPSSPFTRCYGASTGLPDAPRGSTRRQQQRRWGRALEESDEETPYVSSAPRRGAHFH,not soluble
7,MGSDKIHHHHHHMVNAAQAVMESSGQFHVEPEGVIRMSVPKAVGHFMIHPHLPEFLERYPKIDIQMLLEDRYVDLIDDGVDLALRITEQPPGGLMGRKLIDIDHLVCATPEYLSKHGTPNHPHDLKQHECIYLGEQASDSKWKFQQGNKSISVAVRGRYAANHTGVRLSAALQHLGIASLPYFVARHALQQGTLVQVLPDWYFKTYYSGGLWLLYPPTRHVQPKLSVLIQYLADKLAAEPTLFKLK,not soluble
8,MKMQKELSVYLKQILQAAQYIRLYTDKMDYGQFSADTKTVQAVVFNLFLIGENATHILKSYPEFAEETKYLNWIGMRGYCAIGLPMATLK,not soluble
9,MSLNKKIIFFDIDGTLLVHNGKESTIPYSTKEALKKLKEKGHNLFICSGRPIRFAIQEFQEMVDGYICCNGTYIVYNGKCIYNKLIDKDTLKYLIKEFCKLGISASFSGAYNGYSYNMSSEKIHQMNRFYKTENPYILDNWNIEEIEANNVDVFFKNNEHMEKCIKYLEHKLIFNTHKPYLSADVSFKNWDKSKGIEYLVKYMKRDMKDTMAFGDGKNDITMLKTVNIGIAMGNAVDEVKNKADMVTDSAADDGIYNALNKLHLIEGHHHHHH,soluble
10,MGSDKIHHHHHHVFIGIETTDPEGLKETGKVQNLREDPLTAVRRIYAHGIDVLGGFIIGFDHDTMATFEHQYRFITDAGIQSAMIGLLMALPRTPLHERMQREGRLLPLDGHADNTCLTTNIAPRSMNIDAMVAAYQELYRRLLTGPEIGRRIRNKMKYLQAPVYGSGYSMGQRAGILARLMVRGIGAGGLSTLVAFLRSFPFLTPSRIPMVISDWIIGLSMKAFAETSLLGRSTQGLNNAATGISTGLRDP,not soluble
11,MSLKINNLVDLHCHILPAIDDGSPSLEASLELARQAVADGIRYILATPHHMDRHYLNHAGDVVAAVEAFQAELDVNDIPLTIFPGQEVHLNGQLMEKVDDLLSIDTGRHYLLLELPHEMVPSYLDEMIFQLSCEGITPVIAHPERNAQIIAEPQRLYKLAEDGVLAQVTATSLVGTFGEQVQRTAKEFVKCGLVQVVASDAHTLKNRGFAMTKAYQVLNEMDSKYPERFATNARDLLNGEQIEMGQIEIPRKQRKHWLFEGHHHHHH,soluble
12,MTEPWIAFPPEVHSAMLNYGAGVGPMLISATQNGELSAQYAEAASEVEELLGVVASEGWQGQAAEAFVAAYMPFLAWLIQASADCVEMAAQQHVVIEAYTAAVELMPTQVELAANQIKLAVLVATNFFGINTIPIAINEAEYVEMWVRAATTMATYSTVSRSALSAMPHTSPPPLILKSDELLPDTGEDSDEDGHNHGGHSHGGHARMIDNFFAEILRGVSAGRIVWDPVNGTLNGLDYDDYVYPGHAIWWLARGLEFFQDGEQFGELLFTNPTGAFQFLLYVVVVDLPTHIAQIATWLGQYPQLLSAALTGVIAHLGAITGLAGLSGLSAIPSAAIPAVVPELTPVAAAPPMLAVAGVGPAVAAPGMLPASAPAPAAAAGATAAGPTPPATGFGGFPPYLVGGGGPGIGFGSGQSAHAKAAASDSAAAESAAQASARAQARAARRGRSAAKARGHRDEFVTMDMGFDAAAPAPEHQPGARASDCGAGPIGFAGTVRKEAVVKAAGLTTLAGDDFGGGPTMPMMPGTWTHDQGVFDEHR,not soluble
13,TLTVQARQLLSGIVQQQNDLLRAIEAQQHLLQLTVWGIKQLQARSGGRGGWMEWDREINNYTSLIHSLIEESQNQQEKNEQELLEL,soluble
14,MSTIKIVPLGGVRENGKNMYVAEVEDEIFVLDCGLQYPENELLGIDVVIPDFTYLEENSERIAGVFLTHGHADAIGALPYLLSKIQVPVFGTELTIELAKLSVNSHAETKKFKDFHVIDPHTEIDFGQATVSFFKTTHTIPDSIGVSIKTKEGNIVYTGDFKFDQSAIEMYQTDYGRLAEIGKEGVLALLSDSSNAENPAQVASEAQIADEVFDTIRYWEGRIIVACVASNLQRVQQVLNAADRSGRKVVLTGQDFERIIRTAMKLEKLQLPSEDLLVKPKEMKKYAPEQLLILETGRMGEPIKSLQKMANNTHGVVRIEEGDLVYITTTPTTAMETTVAKTEDIVYRAGATVKQISDNLRVSGHANPNDLQLMLNLMKPKYFIPVQGEYRQLAAHADLAHEIGMPYKDIFITGRGDILEYTKGRMSVAGSTTAENIMIDGIGVGDIGNIVLRDRRILSEDGIFVAVVTINRREKRIVSPAKITSRGFVYVKTSKDLMKESSNIVTEIVEKHLESDDFEWSKLKQEIRENLSRYLFEQTKRRPVILPVIMEATQRKRPKNNA,not soluble
15,MGSDKIHHHHHHMDKYTALIHDENFSTLTLNVSRYPKSLAYWEKLLNYIVKASAPICKSTEPQLLKLIRCTYSSMLNEFPYLENYYIDFALLEYKLGNVSMSHKIFQRGLQAFNQRSLLLWTSYLKFCNNVISHQKQLFKKYETAEEYVGLHFFSGEFWDLYLEQISSRCTSSKKYWNVLRKILEIPLHSFSKFYALWLQRIDDIMDLKQLSQLTSKDELLKKLKIDINYSGRKGPYLQDAKKKLKKITKEMYMVVQYQVLEIYSIFESKIYINYYTSPETLVSSDEIETWIKYLDYTITLQTDSLTHLNFQRALLPLAHYDLVWIKYSKWLINSKNDLLGAKNVLLMGLKFSLKKTEIIKLLYSVICKLNEYVLLRNLLEKIESSYSDNVENVDDFEIFWDYLQFKTFCQNSLYSSRYSDSQSNGLLNKELFDKVWKRLSCKEKKSGQEILLNNLVQFYSKDTVEFVEKNIFQKIIEFGWEYYLQNGMFWNCYCRLIYFDTSRSYLDKRQYIVRKIWPQIDKKFAQSVLPSLTEFCESYFPEEMDTLEEMFTEEP,not soluble
16,MAAIINQRVEQGESSMGGAKPALLHRITGHVARINDVILLSKDEGVWTASDDRSVRLYLKRDNDQFWPSIHHFMPVAPTSLYYSEETYKLLVGLINGNVYEFSVADDFNSMTESRKWTCHAGPISGLGFALSSELIFSCSRDKSIVWHCSENSNKMGSYLLENSCTAMVIDLPFVFVGDHGGHVTVLRIVDNQPNLVSKLSAHTNAITSLTWDGNKKVLYSGSSDHLIIMWDIGGGRGEAYELNGHNGKVTTLCAAPAAKRLFSADEHGKLMCWDMNCKRVETPEWKTSDCCQKCNQPFFWNLQAMWQRKVVGLRQHHCRTCGSAVCGSCCDNWTTYPPMGYETKIRICNDCNARMKDNPQNFNLTPLAIPHEIHTGITAMHLQETLGLLVTSGQNRVIMIWDVRSVCSAPSGSQ,not soluble
17,MAKYIEIANTLRTSISNHEYKNNDPFPDQQALSKKFSTSRMTIQKALNILKTEGLIYSKQGSGTFVSSNADLIEQTDLEINQYIGTTDLFGKTHKINSKIIKFTIRYPDKSEQNALRISKKDLIYDITRLRIVDEEPYVLEYTKMPVKVIPGISDDILKKSIYHYIKSDLNLKIGSAFRKIRADKPNLFDKKFLNCKNEDPILEITQTAFLNSDIPFEFSRVRYRYDKGNMVVFVKSSFER,not soluble
18,ATGPRYKVPMRRRREARTDYHQRLRLLKSGKPRLVARKSNKHVRAQLVTLGPNGDDTLASAHSSDLAEYGWEAPTGNMPSAYLTGLLAGLRAQEAGVEEAVLDIGLNSPTPGSKVFAIQEGAIDAGLDIPHNDDVLADWQRTRGAHIAEYDEQLEEPLYSGDFDAADLPEHFDELRETLLDGDIEL,soluble
19,MRILTLGLDGSGEFAFQSHAHTDHFANGRLIFATRPTIFLSHLRNSRYYIPVDFGKKFYIGDFKAKLYPSGHILGSSGIKIWLDEGTLYYTGDVKVKKLRTVERAKLPKADFLIIESTFGLPRFTFPDPRESEKVIIGIVEDLIDRGKVPTFMANPYGKAQEIIKILNVHGYSVSVDREIAKVSKFYMKFGVRLKFEKEGEVKVSSSKGISVSGFGRIKLSNHADFWELLEIVERVNPEKVFTVYGHAEAFAKILNGLGYEAKSIRRNQKLEVWLEHHHHHH,not soluble
20,GSADETLCQTKVLLDIFTGVRLYLPPSTPDFSRLRRYFVAFDGDLVQEFDMTSATHVLGSRDKNPAAQQVSPEWIWACIRKRRLVAPC,soluble
21,MGSDKIHHHHHHVQKMAEGSHSAITLEAGKYRATVDPLGAALRTLHWGERELVWGYPEGRPQLAQGQILLPWPNRIDHGRYSFGGTTYQLEITEPELDNAIHGLTSTLLWQPSQITADSVRFTLAFDGAPGYPFRMEFWVCYSLDPDHGLHVRIGAQNTGDGPAPYGHGSHNYLTLGLPVDEVTLQLPAAEWQPVNERMIPTGPVRSVAGTDYDFRTPRQVGPTVLDTAFTGLRFDEAGRSWTVLSAGELCVGLWADDSHPWLQVFSADYPGPERRRHLAVEPMTCPPNAFVTGTDLIVLDPGQSIESSFGITSTPE,not soluble
